Laboratory results published in patent publication US20210002376A1 (UNIVERSIT T STUTTGART, published 2021).
Positions count from the first letter of the chain named.

Experiments:
[1] = molecular target: T1, TNFR2 (on Kym-1 cells) (UniProt P20333 23-461, limits assumed); assay: cell-based or functional assay
T1 sequence (looked up): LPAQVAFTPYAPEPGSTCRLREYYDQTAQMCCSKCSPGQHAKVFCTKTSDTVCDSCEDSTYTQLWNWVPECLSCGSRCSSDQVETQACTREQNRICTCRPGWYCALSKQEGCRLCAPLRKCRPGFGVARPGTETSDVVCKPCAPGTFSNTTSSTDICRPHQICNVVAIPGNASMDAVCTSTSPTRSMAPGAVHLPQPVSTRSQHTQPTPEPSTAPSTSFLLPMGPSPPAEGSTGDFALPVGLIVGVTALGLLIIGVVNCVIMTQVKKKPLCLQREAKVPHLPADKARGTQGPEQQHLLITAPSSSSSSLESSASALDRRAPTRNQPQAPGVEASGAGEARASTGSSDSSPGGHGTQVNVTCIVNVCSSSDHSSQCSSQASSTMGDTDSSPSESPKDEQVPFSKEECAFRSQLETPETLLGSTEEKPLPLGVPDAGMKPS

[2] = molecular target: T2, TNFR2-Fc (Enbrel) fusion protein (UniProt P20333 23-257); assay: ELISA, coated TNFR2-Fc (Enbrel), anti-human Fab-HRP
T2 construct: extracellular domain; Commercial product (Enbrel) used as coated antigen
T2 sequence (looked up): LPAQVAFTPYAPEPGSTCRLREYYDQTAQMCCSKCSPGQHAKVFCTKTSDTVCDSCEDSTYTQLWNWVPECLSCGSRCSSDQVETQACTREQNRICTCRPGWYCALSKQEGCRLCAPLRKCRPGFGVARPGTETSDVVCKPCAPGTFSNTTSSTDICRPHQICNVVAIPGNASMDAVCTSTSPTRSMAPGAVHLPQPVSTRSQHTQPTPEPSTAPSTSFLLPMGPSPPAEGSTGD

[3] = molecular target: T3, HER3 (on tumor cells) (UniProt P21860 20-1342, limits assumed); assay: flow cytometry on FaDu cells
T3 construct: whole, on cells; also called HER3 on MCF-7, SKBR-3 (SKBR3) and FaDu cells

[4] = molecular target: T3, HER3 (on tumor cells); assay: flow cytometry on MCF-7 cells
[5] = molecular target: T3, HER3 (on tumor cells); assay: flow cytometry on SKBR-3 cells
[6] = molecular target: T4, HER3-Fc fusion protein (UniProt P21860 21-643); assay: ELISA, coated HER3-Fc, anti-human Fab-HRP
T4 construct: range 21-643; Coated antigen in ELISA; not shown: Fc part of the fusion, not described

[7] = molecular target: T5, HER3-His (UniProt P21860 21-643); assay: ELISA, coated His-tagged HER3 ECD, anti-human Fc-HRP
T5 construct: range 21-643; also called His-tagged HER3; second antigen

[8] = molecular target: T6, EGFR-His (UniProt P00533 25-645); assay: ELISA, coated His-tagged EGFR ECD, anti-human Fc-HRP
T6 construct: range 25-645; also called His-tagged EGFR

[9] = molecular target: T5, HER3-His; assay: simultaneous binding ELISA: coated EGFR-Fc, Db titrated, HER3-His 300 nM added, anti-His-HRP
[10] = molecular target: T3, HER3 (on tumor cells); assay: flow cytometry on HER3-expressing SKBR-3 cells
[11] = molecular target: T7, CD3 (on Jurkat cells) (UniProt P07766 23-207); assay: flow cytometry on CD3-expressing Jurkat cells
T7 construct: whole, on cells; CD3 is a complex of several chains; only CD3 is printed; also called CD3-positive Jurkat cells; CD3-expressing cells (Jurkat)

[12] = molecular target: T5, HER3-His; assay: simultaneous binding, flow cytometry: molecule titrated on CD3-positive Jurkat cells, HER3-His 300 nM added, PE anti-His

T7 sequence (P07766 23-207): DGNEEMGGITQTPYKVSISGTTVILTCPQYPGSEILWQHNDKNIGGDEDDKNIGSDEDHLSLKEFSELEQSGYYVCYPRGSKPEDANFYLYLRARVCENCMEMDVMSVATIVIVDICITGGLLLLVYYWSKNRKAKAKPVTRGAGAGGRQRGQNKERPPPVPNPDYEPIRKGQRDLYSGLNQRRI

B1: anti-TNFR2 IgG (antibody, V domains shown)
VH: QVQLQQSGAEVKKPGSAVKVSCKASGGTFSSYAISWVRQAPGQGLEWMGRIIPILGIANYAQKFQGRVTITADKSTSTAYMELSSLRSEDTAVYYCARDGLGDAFDIWGQGTMVTVSS
VL: QSALTQPRSVSGSPGQSITISCTGTSSDVGGYNYVSWYQQHPGKAPKLMIYDVSNRPSGVSNRFSGSKSGNTASLTISGLQAEDEADYYCSSYTSSSTLVVFGGGTKLTVL
EC50 of cell death induction, Kym-1 cells, MTT assay after 24 hours [1]: ~30 nM | EC50 [2]: 0.7 nM

B2: 3M6-IgG (antibody, V domains shown)
VH: EVQLLESGGGLVQPGGSLRLSCAASGFTFSHYVMAWVRQAPGKGLEWVSSISSSGGWTLYADSVKGRFTISRDNSKNTLYLQMNSLRAEDTAVYYCTRGLKMATIFDYWGQGTLVTVSS
VL: QSALTQPASVSGSPGQSITISCTGTSSDVGSYNVVSWYQQHPGKAPKLIIYEVSQRPSGVSNRFSGSKSGNTASLTISGLQTEDEADYYCSSYAGSSIFVIFGGGTKVTVL
EC50 [3]: 7.5 nM | EC50 [4]: 1.18 nM | EC50 [5]: 0.44 nM | EC50 [6]: 0.7 nM

B3: Db3-43xhu225-EHD2-Fc (bispecific antibody)
heavy: EVQLVESGGGLVQPGGSLRLSCAASGFSLTNYGVHWVRQAPGKGLEWLGVIWSGGNTDYNTPFTSRFTISRDNSKNTLYLQMNSLRAEDTAVYYCARALTYYDYEFAYWGQGTTVTVSSGGGGSQAGLTQPPAVSVAPGQTASITCGRDNIGSRSVHWYQQKPGQAPVLVVYDDSDRPAGIPERFSGSNYENTATLTISRVEAGDEADYYCQVWGITSDHVVFGGGTKLTVLASDFTPPTVKILQSSCDGGGHFPPTIQLLCLVSGYTPGTINITWLEDGQVMDVDLSTASTTQEGELASTQSELTLSQKHWLSDRTYTCQVTYQGHTFEDSTKKCADSNDKTHTCPPCPAPPVAGPSVFLFPPKPKDTLMISRTPEVTCVVVDVSHEDPEVKFNWYVDGVEVHNAKTKPREEQYNSTYRVVSVLTVLHQDWLNGKEYKCKVSNKGLPSSIEKTISKAKGQPREPQVYTLPPSRDELTKNQVSLTCLVKGFYPSDIAVEWESNGQPENNYKTTPPVLDSDGSFFLYSKLTVDKSRWQQGNVFSCSVMHEALHNHYTQKSLSLSPGK
light: QVQLQQSGPGLVKPSQTLSLTCAISGDSVSSNRAAWNWIRQSPSRGLEWLGRTYYRSKWYNDYAQSLKSRITINPDTPKNQFSLQLNSVTPEDTAVYYCARDGQLGLDALDIWGQGTMVTVSSGGGGSDIQLTQSPSFLSASVGDRVTITCRASQSIGTNIHWYQQKPGKAPKLLIKYASESISGVPSRFSGSGSGTEFTLTISSLQPEDFATYYCQQNNNWPTTFGAGTKLEIKRTDFTPPTVKILQSSCDGGGHFPPTIQLLCLVSGYTPGTINITWLEDGQVMDVDLSTASTTQEGELASTQSELTLSQKHWLSDRTYTCQVTYQGHTFEDSTKKCADSN
notes: homodimeric Fc part; also called bispecific, tetravalent diabody fusion protein using EHD2
EC50 [7]: 0.35 nM | EC50 [8]: 0.28 nM | EC50 [9]: 1.4 nM

B4: Db3-43xhu225-het1EHD2-Fc (bispecific antibody)
heavy: B3 heavy with C336S
light: B3 light with C251S, N276Q
notes: also called Db3-43xhu225-hetEHD2-Fc
EC50 [7]: 0.34 nM | EC50 [8]: 0.24 nM | EC50 [9]: 0.56 nM

B5: hu225-IgG (antibody, V domains shown)
VH: EVQLVESGGGLVQPGGSLRLSCAASGFSLTNYGVHWVRQAPGKGLEWLGVIWSGGNTDYNTPFTSRFTISRDNSKNTLYLQMNSLRAEDTAVYYCARALTYYDYEFAYWGQGTTVTVSS
VL: DIQLTQSPSFLSASVGDRVTITCRASQSIGTNIHWYQQKPGKAPKLLIKYASESISGVPSRFSGSGSGTEFTLTISSLQPEDFATYYCQQNNNWPTTFGAGTKLEIK
EC50 [8]: 0.23 nM

B6: Db3-43xhuU3-EHD2-Fab3-43-Fckih (bispecific antibody)
light 1: not shown
heavy 1: QVQLVQSGAEVKKPGSSVKVSCKASGGTFSGYTMNWVRQAPGQGLEWMGLINPYKGVSTYNGKFKDRVTITADKSTSTAYMELSSLRSEDTAVYYCARSGYYGDSDWYFDVWGQGTLVTVSSGGGGSQAGLTQPPAVSVAPGQTASITCGRDNIGSRSVHWYQQKPGQAPVLVVYDDSDRPAGIPERFSGSNYENTATLTISRVEAGDEADYYCQVWGITSDHVVFGGGTKLTVLASDFTPPTVKILQSSCDGGGHFPPTIQLLCLVSGYTPGTINITWLEDGQVMDVDLSTASTTQEGELASTQSELTLSQKHWLSDRTYTCQVTYQGHTFEDSTKKCADSNDKTHTCPPCPAPPVAGPSVFLFPPKPKDTLMISRTPEVTCVVVDVSHEDPEVKFNWYVDGVEVHNAKTKPREEQYNSTYRVVSVLTVLHQDWLNGKEYKCKVSNKGLPSSIEKTISKAKGQPREPQVCTLPPSRDELTKNQVSLSCAVKGFYPSDIAVEWESNGQPENNYKTTPPVLDSDGSFFLVSKLTVDKSRWQQGNVFSCSVMHEALHNHYTQKSLSLSPGK
heavy 2: QVQLQQSGPGLVKPSQTLSLTCAISGDSVSSNRAAWNWIRQSPSRGLEWLGRTYYRSKWYNDYAQSLKSRITINPDTPKNQFSLQLNSVTPEDTAVYYCARDGQLGLDALDIWGQGTMVTVSSASTKGPSVFPLAPSSKSTSGGTAALGCLVKDYFPEPVTVSWNSGALTSGVHTFPAVLQSSGLYSLSSVVTVPSSSLGTQTYICNVNHKPSNTKVDKKVEPKSCGTDKTHTCPPCPAPPVAGPSVFLFPPKPKDTLMISRTPEVTCVVVDVSHEDPEVKFNWYVDGVEVHNAKTKPREEQYNSTYRVVSVLTVLHQDWLNGKEYKCKVSNKGLPSSIEKTISKAKGQPREPQVYTLPPCRDELTKNQVSLWCLVKGFYPSDIAVEWESNGQPENNYKTTPPVLDSDGSFFLYSKLTVDKSRWQQGNVFSCSVMHEALHNHYTQKSLSLSPGK
light 2: QAGLTQPPAVSVAPGQTASITCGRDNIGSRSVHWYQQKPGQAPVLVVYDDSDRPAGIPERFSGSNYENTATLTISRVEAGDEADYYCQVWGITSDHVVFGGGTKLTVLGQPKAAPSVTLFPPSSEELQANKATLVCLISDFYPGAVTVAWKADSSPVKAGVETTTPSKQSNNKYAASSYLSLTPEQWKSHRSYSCQVTHEGSTVEKTVAPTECS
notes: Four different polypeptides; also called bispecific, trivalent Diabody-Fab fusion protein targeting HER3 (3-43) and CD3 (huU3)
EC50 [10]: 0.03 nM | EC50 [11]: 9.5 nM | EC50 [12]: 13.8 nM

B7: Db3-43xhuU3-EHD2-scFv3-43-Fckih (bispecific antibody)
light: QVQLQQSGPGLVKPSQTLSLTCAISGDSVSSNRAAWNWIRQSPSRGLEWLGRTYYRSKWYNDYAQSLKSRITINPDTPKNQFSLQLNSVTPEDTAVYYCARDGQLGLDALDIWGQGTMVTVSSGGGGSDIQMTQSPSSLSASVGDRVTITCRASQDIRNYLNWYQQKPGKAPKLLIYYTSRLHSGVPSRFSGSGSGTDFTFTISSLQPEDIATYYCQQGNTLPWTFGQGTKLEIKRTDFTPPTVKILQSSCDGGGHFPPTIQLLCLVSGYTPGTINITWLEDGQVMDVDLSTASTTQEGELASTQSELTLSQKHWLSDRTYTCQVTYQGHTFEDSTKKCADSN
heavy: B6 heavy 1
chain: QVQLQQSGPGLVKPSQTLSLTCAISGDSVSSNRAAWNWIRQSPSRGLEWLGRTYYRSKWYNDYAQSLKSRITINPDTPKNQFSLQLNSVTPEDTAVYYCARDGQLGLDALDIWGQGTMVTVSSGGGGSGGGGSGGGGSQAGLTQPPAVSVAPGQTASITCGRDNIGSRSVHWYQQKPGQAPVLVVYDDSDRPAGIPERFSGSNYENTATLTISRVEAGDEADYYCQVWGITSDHVVFGGGTKLTVLAAADKTHTCPPCPAPPVAGPSVFLFPPKPKDTLMISRTPEVTCVVVDVSHEDPEVKFNWYVDGVEVHNAKTKPREEQYNSTYRVVSVLTVLHQDWLNGKEYKCKVSNKGLPSSIEKTISKAKGQPREPQVYTLPPCRDELTKNQVSLWCLVKGFYPSDIAVEWESNGQPENNYKTTPPVLDSDGSFFLYSKLTVDKSRWQQGNVFSCSVMHEALHNHYTQKSLSLSPGK
notes: Three different polypeptides; also called bispecific, trivalent Diabody-scFv fusion protein targeting HER3 (3-43) and CD3 (huU3)
EC50 [10]: 0.037 nM | EC50 [11]: 8.1 nM | EC50 [12]: 9 nM
